Test results: US20240254220A1 (CENTRICSBIO, published 2024)
Numbering of substitutions follows the chain as printed. Blank lines part the entries; values can stand above or below the binder they belong to.

Legend:
mouse CD300c = molecular target: T1, mouse CD300c (mouse); test: cell-based or functional assay
T1 sequence (A2A7V7 whole entry, looked up): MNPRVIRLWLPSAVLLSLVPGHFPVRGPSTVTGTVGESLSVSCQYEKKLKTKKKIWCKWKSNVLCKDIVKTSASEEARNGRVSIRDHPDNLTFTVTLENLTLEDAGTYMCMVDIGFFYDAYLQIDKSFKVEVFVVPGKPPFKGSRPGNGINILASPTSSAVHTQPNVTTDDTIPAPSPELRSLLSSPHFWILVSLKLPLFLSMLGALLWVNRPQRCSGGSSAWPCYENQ

[1] = molecular target: T2, CD300c antigen (11832-H08H, Sino Biological) (human, UniProt Q08708 21-183); test: binding ELISA, plate coated with CD300c antigen (8 µg/mL), HRP anti-Fc IgG detection
T2 construct: Bought antigen; also called CD300c protein; CD300 antigen-like family member C
T2 sequence (looked up): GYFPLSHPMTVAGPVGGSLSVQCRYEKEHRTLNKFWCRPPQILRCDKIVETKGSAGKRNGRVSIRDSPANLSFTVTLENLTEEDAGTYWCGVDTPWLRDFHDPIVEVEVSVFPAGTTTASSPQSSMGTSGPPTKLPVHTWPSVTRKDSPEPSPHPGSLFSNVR
Method: In order to identify the antigen-binding ability of the anti-CD300c monoclonal antibodies produced in Example 1, binding ELISA was performed. Specifically, a CD300c antigen (11832-H08H, Sino Biological) or a CD300a antigen (12449-H08H, Sino Biological) in a coating buffer (0.1 M sodium carbonate, pH 9.0) was dispensed into an ELISA plate at a concentration of 8 μg/mL per well, followed by incubation at room temperature for 3 hours to allow the antigen to be bound to the plate. The unbound antigens were removed by washing three times using phosphate buffered saline-Tween 20 (PBST), and then 300 μL of PBST supplemented with 5% bovine serum albumin (BSA) was added to each well, followed by incubation at room temperature for 1 hour and then washing using PBST. Then, an anti-CD300c monoclonal antibody was diluted in quadruplicate and added thereto, followed by incubation for 1 hour at room temperature for antigen binding. After 1 hour, washing was performed three times using PBST to remove unbound anti-CD300c monoclonal antibody, and then 4 μg/mL of an antibody for detection (HRP conjugated anti-Fc IgG) was added, followed by incubation again at room temperature for 1 hour. Subsequently, the unbound antibody for detection was removed using PBST, and then TMB solution was added, followed by incubation for 10 minutes for development. Then, 2 N sulfuric acid solution was added to terminate the development reaction, and the absorbance was measured at 450 nm to identify the antibodies specifically binding to the CD300c antigen.

[2] = molecular target: T2, CD300c antigen (11832-H08H, Sino …); test: selection ELISA of Example 1.2, scFv periplasmic extract on coated CD300c antigen
Method: In order to select anti-CD300c monoclonal antibodies specifically binding, with high binding affinity, to a CD300c antigen, ELISA was performed using the library pool obtained by the same method as in Example 1.1. More specifically, each of a CD300c antigen and a CD300a antigen in a coating buffer (0.1 M sodium carbonate, pH 9.0) was dispensed into an ELISA plate at a concentration of 5 μg/mL per well, followed by incubation at room temperature for 3 hours, to allow the antigen to bind to the plate. The unbound antigens were removed by washing three times using phosphate buffered saline-Tween 20 (PBST), and then 350 μL of PBST supplemented with 2% bovine serum albumin (BSA) was added to each well, followed by incubation at room temperature for 1 hour and then washing again using PBST. Then, 25 μg of a periplasmic extract containing scFv obtained by the same method as in Example 1.1 was added thereto, followed by incubation for 1 hour at room temperature for antigen binding. After 1 hour, the unbound scFv was removed by washing three times using PBST, and then 4 μg/mL of an antibody for detection was added, followed by incubation again at room temperature for 1 hour. Subsequently, the unbound antibodies for detection were removed using PBST, and then HRP-conjugated anti-rabbit IgG was added, followed by incubation at room temperature for 1 hour. The unbound antibodies were removed again using PBST. Subsequently, 3,3′,5,5′-tetramethylbenzidine (TMB) solution was added, followed by incubation for 10 minutes for development. Then, 2 N sulfuric acid solution was added to terminate the development reaction, and the absorbance was measured at 450 nm to identify the antibodies specifically binding to the CD300c antigen.

B1: CL10 (antibody, V domains shown)
VH: EVQLLESGGGLVQPGGSLRLSCAASGFTFSSYGMHWVRQAPGKGLEWVSAISGSGGSTYYADSVKGRFTISRDNSKNTLYLQMNSLRAEDTAVYYCASGYGLMDVWGQGTLVTVSS
VL: QSVLTQPPSASGTPGQRVTISCTRSSGIIASNYVQWYQQLPGTAPKLLIYRNNQRPSGVPDRFSGSKSGTSASLAISGLRSEDEADYYCSSYAGNNNLVFGGGTKLTVL
notes: also called anti-CD300c monoclonal antibody CL10; CB301 antibody CL10
cancer cell proliferation inhibitory effect, CT26 mouse colon cancer cells, 10 ug/mL antibody, 5 days, CCK-8 (mouse CD300c): 15% | EC50 [1]: 0.039 µg/mL

B2: CB301_OPALTL_E6 (antibody, V domains shown)
VH: B1 VH with S57Y, S98R, G99W, Y100H, G101Y, L102S, M103F, V105Y
VL: QSVLTQPPSASGTPGQRVTISCSGSSSNIGNNYVSWYQQLPGTAPKLLIYRNNQRPSGVPDRFSGSKSGTSASLAISGLRSEDEADYYCQSYDNSNVLFGGGTKLTVL
binding result [2]: binds

B3: CB301_H3L1_F4 (antibody, V domains shown)
VH: EVQLLESGGGLVQPGGSLRLSCAASGFTFSGYAMSWVRQAPGKGLEWVSAISGSGGSTYYADSVKGRFTISRDNSKNTLYLQMNSLRAEDTAVYYCARSPSGLFDYWGQGTLVTVSS
VL: QSVLTQPPSASGTPGQRVTISCGGNNIGSKRVHWYQQLPGTAPKLLIYNTSNKHSGVPDRFSGSKSGTSASLAISGLRSEDEADYYCSSYLQQHSLFGGGTKLTVL
binding result [2]: binds

Other lines, results leading:

binding result [2]: binds
B4: CB301_OPALTL_B5 (antibody, V domains shown)
VH: EVQLLESGGGLVQPGGSLRLSCAASGFTFSHYAMSWVRQAPGKGLEWVSAISGSGGSTYYADSVKGRFTISRDNSKNTLYLQMNSLRAEDTAVYYCARGWDSPTLTYFDSWGQGTLVTVSS
VL: QSVLTQPPSASGTPGQRVTISCSGTSSNIGNNDVSWYQQLPGTAPKLLIYQDTKRPSGVPDRFSGSKSGTSASLAISGLRSEDEADYYCAAWDDSLSGPVFGGGTKLTVL

cancer cell proliferation inhibitory effect, CT26 mouse colon cancer cells, 10 ug/mL antibody, 5 days, CCK-8 (mouse CD300c): 38% | EC50 [1]: 0.17 µg/mL
B5: SL18 (antibody, V domains shown)
VH: RVQLLESGGGLVQPGGSLRLSCAASGFTFSDYHMHWVRQAPGKGLEWVSTISSSGGYTYYAESVKSRFTISRDNSKNTLYLQMNSLRAEDTAVYYCARSIRLPLDYWGQGTLVTVSS
VL: QSVLTQPPSASGTPGQRVTISCSGNNIGSKGVHWYQQLPGTAPKLLIYEDSKRPSGVRDRFSGSKSGTSASLAISGLRSEDEADYYCQSYDSTKGVVFGGGTKLTVL
notes: also called anti-CD300c monoclonal antibody SL18; CB301 antibody SL18
